Results from the supplement of paper PMC11316812.
± gives the standard deviation of the averaged measurements.

Columns and labels:
hTERT-HMEC = assay: percentage of EdU-negative (G0-arrested) nuclei per well, 72 h; higher = more G0 arrest; conditions: reference: sequence is the full UniProt precursor, the tested protein was the secreted form or ectodomain
MCF7 = assay: as above; conditions: reference: sequence is the full UniProt precursor, the tested protein was the secreted form or ectodomain
[1] = protein concentration 0.00828571 µM
[2] = protein concentration 0.0828571 µM
[3] = protein concentration 0.01525 µM
[4] = protein concentration 0.1525 µM
[5] = protein concentration 0.0225 µM
[6] = protein concentration 0.0055 µM
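Also: secreted proteins added to cultured cells, EdU pulse at the end, nuclei found by Hoechst imaging, EdU status from nuclear versus surrounding ring intensity ratio, PBS as neutral control.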

Sequence: MWAQLLLGMLALSPAIAEELPNYLVTLPARLNFPSVQKVCLDLSPGYSDVKFTVTLETKDKTQKLLEYSGLKKRHLHCISFLVPPPAGGTEEVATIRVSGVGNNISFEEKKKVLIQRQGNGTFVQTDKPLYTPGQQVYFRIVTMDSNFVPVNDKYSMVELQDPNSNRIAQWLEVVPEQGIVDLSFQLAPEAMLGTYTVAVAEGKTFGTFSVEEYVLPKFKVEVVEPKELSTVQESFLVKICCRYTYGKPMLGAVQVSVCQKANTYWYREVEREQLPDKCRNLSGQTDKTGCFSAPVDMATFDLIGYAYSHQINIVATVVEEGTGVEANATQNIYISPQMGSMTFEDTSNFYHPNFPFSGKIRVRGHDDSFLKNHLVFLVIYGTNGTFNQTLVTDNNGLAPFTLETSGWNGTDVSLEGKFQMEDLVYNPEQVPRYYQNAYLHLRPFYSTTRSFLGIHRLNGPLKCGQPQEVLVDYYIDPADASPDQEISFSYYLIGKGSLVMEGQKHLNSKKKGLKASFSLSLTFTSRLAPDPSLVIYAIFPSGGVVADKIQFSVEMCFDNQVSLGFSPSQQLPGAEVELQLQAAPGSLCALRAVDESVLLLRPDRELSNRSVYGMFPFWYGHYPYQVAEYDQCPVSGPWDFPQPLIDPMPQGHSSQRSIIWRPSFSEGTDLFSFFRDVGLKILSNAKIKKPVDCSHRSPEYSTAMGAGGGHPEAFESSTPLHQAEDSQVRQYFPETWLWDLFPIGNSGKEAVHVTVPDAITEWKAMSFCTSQSRGFGLSPTVGLTAFKPFFVDLTLPYSVVRGESFRLTATIFNYLKDCIRVQTDLAKSHEYQLESWADSQTSSCLCADDAKTHHWNITAVKLGHINFTISTKILDSNEPCGGQKGFVPQKGRSDTLIKPVLVKPEGVLVEKTHSSLLCPKGKVASESVSLELPVDIVPDSTKAYVTVLGDIMGTALQNLDGLVQMPSGCGEQNMVLFAPIIYVLQYLEKAGLLTEEIRSRAVGFLEIGYQKELMYKHSNGSYSAFGERDGNGNTWLTAFVTKCFGQAQKFIFIDPKNIQDALKWMAGNQLPSGCYANVGNLLHTAMKGGVDDEVSLTAYVTAALLEMGKDVDDPMVSQGLRCLKNSATSTTNLYTQALLAYIFSLAGEMDIRNILLKQLDQQAIISGESIYWSQKPTPSSNASPWSEPAAVDVELTAYALLAQLTKPSLTQKEIAKATSIVAWLAKQHNAYGGFSSTQDTVVALQALAKYATTAYMPSEEINLVVKSTENFQRTFNIQSVNRLVFQQDTLPNVPGMYTLEASGQGCVYVQTVLRYNILPPTNMKTFSLSVEIGKARCEQPTSPRSLTLTIHTSYVGSRSSSNMAIVEVKMLSGFSPMEGTNQLLLQQPLVKKVEFGTDTLNIYLDELIKNTQTYTFTISQSVLVTNLKPATIKVYDYYLPDEQATIQYSDPCE [A8K2U0]
- percentage of EdU-negative (hTERT-HMEC; [1]): 5.09 ± 0.24%
- percentage of EdU-negative (hTERT-HMEC; [2]): 5.43 ± 0.39%
- percentage of EdU-negative (MCF7; [1]): 23.3 ± 1.1%
- percentage of EdU-negative (MCF7; [2]): 29.5 ± 1.8%

Sequence: MWATLPLLCAGAWLLGVPVCGAAELCVNSLEKFHFKSWMSKHRKTYSTEEYHHRLQTFASNWRKINAHNNGNHTFKMALNQFSDMSFAEIKHKYLWSEPQNCSATKSNYLRGTGPYPPSVDWRKKGNFVSPVKNQGACGSCWTFSTTGALESAIAIATGKMLSLAEQQLVDCAQDFNNHGCQGGLPSQAFEYILYNKGIMGEDTYPYQGKDGYCKFQPGKAIGFVKDVANITIYDEEAMVEAVALYNPVSFAFEVTQDFMMYRTGIYSSTSCHKTPDKVNHAVLAVGYGEKNGIPYWIVKNSWGPQWGMNGYFLIERGKNMCGLAACASYPIPLV
- percentage of EdU-negative (hTERT-HMEC; [3]): 5.31 ± 0.13%
- percentage of EdU-negative (hTERT-HMEC; [4]): 8.87 ± 0.59%
- percentage of EdU-negative (MCF7; [3]): 27 ± 2.4%
- percentage of EdU-negative (MCF7; [4]): 29.3 ± 4.1%

Sequence: MWCIVLFSLLAWVYAEPTMYGEILSPNYPQAYPSEVEKSWDIEVPEGYGIHLYFTHLDIELSENCAYDSVQIISGDTEEGRLCGQRSSNNPHSPIVEEFQVPYNKLQVIFKSDFSNEERFTGFAAYYVATDINECTDFVDVPCSHFCNNFIGGYFCSCPPEYFLHDDMKNCGVNCSGDVFTALIGEIASPNYPKPYPENSRCEYQIRLEKGFQVVVTLRREDFDVEAADSAGNCLDSLVFVAGDRQFGPYCGHGFPGPLNIETKSNALDIIFQTDLTGQKKGWKLRYHGDPMPCPKEDTPNSVWEPAKAKYVFRDVVQITCLDGFEVVEGRVGATSFYSTCQSNGKWSNSKLKCQPVDCGIPESIENGKVEDPESTLFGSVIRYTCEEPYYYMENGGGGEYHCAGNGSWVNEVLGPELPKCVPVCGVPREPFEEKQRIIGGSDADIKNFPWQVFFDNPWAGGALINEYWVLTAAHVVEGNREPTMYVGSTSVQTSRLAKSKMLTPEHVFIHPGWKLLEVPEGRTNFDNDIALVRLKDPVKMGPTVSPICLPGTSSDYNLMDGDLGLISGWGRTEKRDRAVRLKAARLPVAPLRKCKEVKVEKPTADAEAYVFTPNMICAGGEKGMDSCKGDSGGAFAVQDPNDKTKFYAAGLVSWGPQCGTYGLYTRVKNYVDWIMKTMQENSTPRED
- percentage of EdU-negative (hTERT-HMEC; [5]): 4.97 ± 0.22%
- percentage of EdU-negative (hTERT-HMEC; protein concentration 0.225 µM): 6.85 ± 3.7%
- percentage of EdU-negative (MCF7; [5]): 23.9 ± 1.2%
- percentage of EdU-negative (MCF7; protein concentration 0.225 µM): 24.2 ± 1.2%

Sequence: MWDLVLSIALSVGCTGAVPLIQSRIVGGWECEKHSQPWQVAVYSHGWAHCGGVLVHPQWVLTAAHCLKKNSQVWLGRHNLFEPEDTGQRVPVSHSFPHPLYNMSLLKHQSLRPDEDSSHDLMLLRLSEPAKITDVVKVLGLPTQEPALGTTCYASGWGSIEPEEFLRPRSLQCVSLHLLSNDMCARAYSEKVTEFMLCAGLWTGGKDTCGGDSGGPLVCNGVLQGITSWGPEPCALPEKPAVYTKVVHYRKWIKDTIAANP
- percentage of EdU-negative (hTERT-HMEC; [5]): 4.38 ± 0.36%
- percentage of EdU-negative (hTERT-HMEC; protein concentration 0.225 µM): 5.65 ± 0.28%
- percentage of EdU-negative (MCF7; [5]): 23.8 ± 1.7%
- percentage of EdU-negative (MCF7; protein concentration 0.225 µM): 24.8 ± 1.2%

Sequence: MWGLKVLLLPVVSFALYPEEILDTHWELWKKTHRKQYNNKVDEISRRLIWEKNLKYISIHNLEASLGVHTYELAMNHLGDMTSEEVVQKMTGLKVPLSHSRSNDTLYIPEWEGRAPDSVDYRKKGYVTPVKNQGQCGSCWAFSSVGALEGQLKKKTGKLLNLSPQNLVDCVSENDGCGGGYMTNAFQYVQKNRGIDSEDAYPYVGQEESCMYNPTGKAAKCRGYREIPEGNEKALKRAVARVGPVSVAIDASLTSFQFYSKGVYYDESCNSDNLNHAVLAVGYGIQKGNKHWIIKNSWGENWGNKGYILMARNKNNACGIANLASFPKM
- percentage of EdU-negative (hTERT-HMEC; [6]): 4.75 ± 0.94%
- percentage of EdU-negative (hTERT-HMEC; protein concentration 0.055 µM): 4.78 ± 0.37%
- percentage of EdU-negative (MCF7; [6]): 25.3 ± 2.9%
- percentage of EdU-negative (MCF7; protein concentration 0.055 µM): 27.4 ± 1.2%
